The target of this experiment is LSD1 (lysine specific demethylase 1), full length (UniProt O60341).

For H3K4me 1-21 peptide, the K (M,post) (post-equilibrium apparent Michaelis-Menten constant) of the demethylation of K4meK9 by 200 nM CoREST ternary complex, APO, real-time 1H NMR assay came to 2.3 µM and the K (M,post) (post-equilibrium apparent Michaelis-Menten constant) of the demethylation of K4meK9 by the CoREST ternary complex pre-equilibrated with 5 μM MS275 HDAC inhibitor, real-time 1H NMR assay is 9.2 µM.
